Reference: patent US20240287186A1

Target: CD3 (target of Table E-1) (UniProt P07766)
Assay: Biacore (SPR; format not stated)

Kd: 9.62 nM
Substance: Anti-CD3 Fab OKT3
